The values below come from PMC6351565, “Mechanism of IRSp53 inhibition by 14-3-3” (Nature Communications, 2019).

Where no end group is shown, it is not given here. [ ]: non-standard residue; d: D form. pT = C[C@@H](OP(=O)(O)O)[C@H](N)C(=O)O; pS = N[C@@H](COP(=O)(O)O)C(=O)O

Holding throughout (settings): both partners purified
Test [1] deals with T1, 14-3-3θ (human, UniProt P27348 1-245).
T1 construct: 14-3-3θ, human, UniProt P27348; also called 14-3-3 theta; 14-3-3τ
T1 sequence: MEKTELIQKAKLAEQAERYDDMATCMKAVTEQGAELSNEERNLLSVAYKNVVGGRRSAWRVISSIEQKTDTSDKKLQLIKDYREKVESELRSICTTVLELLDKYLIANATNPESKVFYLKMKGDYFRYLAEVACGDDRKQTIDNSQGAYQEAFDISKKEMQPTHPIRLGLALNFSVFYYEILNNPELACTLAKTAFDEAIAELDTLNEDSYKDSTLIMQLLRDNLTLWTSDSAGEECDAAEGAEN
Nature of the test: ITC; peptide in the syringe (100 μM singly, 50 μM doubly phosphorylated) titrated into 10 μM 14-3-3θ in the cell; 20 °C; 20 mM HEPES pH 7.5, 150 mM NaCl, 1 mM MgCl2, 0.1 mM TCEP; single-site model.

Test [2] has as its target T1, 14-3-3θ. The experiment in a line: SEC-MALS; 14-3-3θ (4 mg/mL) pre-incubated 2 h at 20 °C with Site 2 (two peptides per dimer) or Sites 2,4 (one peptide per dimer); TSKgel SuperSW2000. (SEC sorts molecules by how far they enter the pores of the column.)
Test [3] deals with T2, IRSp53-FLAG (wild type), natively phosphorylated (human (from the printed UniProt entry), UniProt Q9UQB8-4 1-521, phosphorylated in HEK293T cells at S325, T340, T360, S366 and a residue within 452SSST455, most likely S454 (mass spectrometry of the purified 14-3-3-binding-competent fraction)).
T2 construct: also called pIRSp53; WT IRSp53-FLAG; source: HEK293T, transfected, in lysate; not shown: FLAG, C-terminal, kept
T2 sequence (looked up): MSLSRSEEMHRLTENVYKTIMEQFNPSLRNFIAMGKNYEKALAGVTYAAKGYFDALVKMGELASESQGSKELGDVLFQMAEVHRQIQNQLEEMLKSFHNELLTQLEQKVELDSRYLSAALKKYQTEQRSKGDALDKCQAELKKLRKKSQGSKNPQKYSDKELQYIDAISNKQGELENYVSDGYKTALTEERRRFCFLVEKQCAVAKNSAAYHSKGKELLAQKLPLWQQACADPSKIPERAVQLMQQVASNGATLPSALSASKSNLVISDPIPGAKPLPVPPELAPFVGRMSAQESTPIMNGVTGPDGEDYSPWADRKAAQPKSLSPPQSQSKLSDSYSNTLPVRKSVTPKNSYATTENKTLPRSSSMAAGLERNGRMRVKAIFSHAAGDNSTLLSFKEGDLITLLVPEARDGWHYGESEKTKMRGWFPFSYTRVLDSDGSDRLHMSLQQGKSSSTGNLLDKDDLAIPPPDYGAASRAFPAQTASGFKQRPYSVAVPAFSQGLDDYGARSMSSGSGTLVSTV
Nature of the test: pull-down; 14-3-3θ-affinity column: MBP-14-3-3θ bound to amylose resin; FLAG-eluted IRSp53-FLAG loaded; eluted with 200 μM Sites 2,3 peptide.

Test [4] concerns the target T3, 2xFLAG-Eps8 (human, UniProt Q12929 1-822).
T3 construct: Eps8, human, UniProt Q12929, full length; also called FLAG-tagged Eps8
Nature of the test: other fluorescence titration; intramolecular FRET sensor (fluorescein/rhodamine on C230 and C519 of IRSp53); Cdc42, Eps8 and/or 14-3-3θ titrated into the sensor, also back to back; 20 °C; 25 mM Tris-HCl pH 7.5, 150 mM NaCl, 1 mM MgCl2, 5% glycerol, 0.1 mM TCEP; observed Kd (Kobs) from the fits.

T3 sequence (Q12929 whole entry): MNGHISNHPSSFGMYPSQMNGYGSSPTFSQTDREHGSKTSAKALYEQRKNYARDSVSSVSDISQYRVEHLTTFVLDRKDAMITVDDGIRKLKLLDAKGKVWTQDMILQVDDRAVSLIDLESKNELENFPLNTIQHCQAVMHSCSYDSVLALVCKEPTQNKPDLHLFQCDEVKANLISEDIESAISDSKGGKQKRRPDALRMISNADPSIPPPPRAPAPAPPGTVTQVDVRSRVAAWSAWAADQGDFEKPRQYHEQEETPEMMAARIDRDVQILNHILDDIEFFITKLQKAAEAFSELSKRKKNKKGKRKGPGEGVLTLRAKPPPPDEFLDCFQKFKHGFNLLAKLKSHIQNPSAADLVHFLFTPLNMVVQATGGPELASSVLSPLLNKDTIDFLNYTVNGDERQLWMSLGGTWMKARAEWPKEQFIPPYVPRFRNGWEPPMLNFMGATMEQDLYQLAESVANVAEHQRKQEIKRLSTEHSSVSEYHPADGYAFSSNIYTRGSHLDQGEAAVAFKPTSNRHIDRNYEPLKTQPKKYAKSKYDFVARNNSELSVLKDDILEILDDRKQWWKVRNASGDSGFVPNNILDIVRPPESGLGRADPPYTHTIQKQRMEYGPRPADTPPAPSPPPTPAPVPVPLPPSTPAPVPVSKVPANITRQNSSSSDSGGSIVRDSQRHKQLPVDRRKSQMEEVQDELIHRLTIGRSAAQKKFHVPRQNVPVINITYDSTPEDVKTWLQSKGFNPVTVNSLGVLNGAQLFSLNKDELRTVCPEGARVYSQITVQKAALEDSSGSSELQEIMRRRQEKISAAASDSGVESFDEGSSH

B1: Sites 1,2 peptide (pS325/pT340) (peptide)
chain: AQPKSL[pS]PPQSQSKLSDSYSN[pT]LPVRKS
As for B1, the “stoichiometry N” value in test [1] is ~1 peptide per 14-3-3θ subunit.

B2: Sites 2,4 peptide (pT340/pS366) (peptide)
peptide: Ac-DSYSN[pT]LPVRKSVTPKNSYATTENKTLPRSS[pS]MAAGLE-NH2
SMILES: CSCC[C@H](NC(=O)[C@H](COP(=O)(O)O)NC(=O)[C@H](CO)NC(=O)[C@H](CO)NC(=O)[C@H](CCCNC(=N)N)NC(=O)[C@@H]1CCCN1C(=O)[C@H](CC(C)C)NC(=O)[C@@H](NC(=O)[C@H](CCCCN)NC(=O)[C@H](CC(N)=O)NC(=O)[C@H](CCC(=O)O)NC(=O)[C@@H](NC(=O)[C@@H](NC(=O)[C@H](C)NC(=O)[C@H](Cc1ccc(O)cc1)NC(=O)[C@H](CO)NC(=O)[C@H](CC(N)=O)NC(=O)[C@H](CCCCN)NC(=O)[C@@H]1CCCN1C(=O)[C@@H](NC(=O)[C@@H](NC(=O)[C@H](CO)NC(=O)[C@H](CCCCN)NC(=O)[C@H](CCCNC(=N)N)NC(=O)[C@@H](NC(=O)[C@@H]1CCCN1C(=O)[C@H](CC(C)C)NC(=O)[C@@H](NC(=O)[C@H](CC(N)=O)NC(=O)[C@H](CO)NC(=O)[C@H](Cc1ccc(O)cc1)NC(=O)[C@H](CO)NC(=O)[C@H](CC(=O)O)NC(C)=O)[C@@H](C)OP(=O)(O)O)C(C)C)C(C)C)[C@@H](C)O)[C@@H](C)O)[C@@H](C)O)[C@@H](C)O)C(=O)N[C@@H](C)C(=O)N[C@@H](C)C(=O)NCC(=O)N[C@@H](CC(C)C)C(=O)N[C@@H](CCC(=O)O)C(N)=O
notes: IRSp53 stretch of 29-40 residues that holds T340 and S366; source: synthetic peptide (Dr. Paul Leavis, Tufts University)
The term Kd denotes the concentration at which binding is half-saturated. Higher therefore signals a looser complex. B2: in test [2], the “stoichiometry N” value is 0.5 peptide per 14-3-3θ subunit. Also, in test [1], the Kd amounted to 67 nM and the “stoichiometry N” value was ~0.5 peptide per 14-3-3θ subunit (one peptide per 14-3-3θ dimer).

B3: Site 3 peptide (pT360) (peptide)
chain: Ac-ATTENK[pT]LPRSSS-NH2
SMILES: CC(=O)N[C@@H](C)C(=O)N[C@H](C(=O)N[C@H](C(=O)N[C@@H](CCC(=O)O)C(=O)N[C@@H](CC(N)=O)C(=O)N[C@@H](CCCCN)C(=O)N[C@H](C(=O)N[C@@H](CC(C)C)C(=O)N1CCC[C@H]1C(=O)N[C@@H](CCCNC(=N)N)C(=O)N[C@@H](CO)C(=O)N[C@@H](CO)C(=O)N[C@@H](CO)C(N)=O)[C@@H](C)OP(=O)(O)O)[C@@H](C)O)[C@@H](C)O
In the case of B3, the “stoichiometry N” value in test [1] was ~1 peptide per 14-3-3θ subunit (two peptides per 14-3-3θ dimer).

B4: Site 4 peptide (pS366) (peptide)
chain: Ac-TLPRSS[pS]MAAGLEK-NH2
SMILES: CSCC[C@H](NC(=O)[C@H](COP(=O)(O)O)NC(=O)[C@H](CO)NC(=O)[C@H](CO)NC(=O)[C@H](CCCNC(=N)N)NC(=O)[C@@H]1CCCN1C(=O)[C@H](CC(C)C)NC(=O)[C@@H](NC(C)=O)[C@@H](C)O)C(=O)N[C@@H](C)C(=O)N[C@@H](C)C(=O)NCC(=O)N[C@@H](CC(C)C)C(=O)N[C@@H](CCC(=O)O)C(=O)N[C@@H](CCCCN)C(N)=O
For B4, the “stoichiometry N” value in test [1] was ~1 peptide per 14-3-3θ subunit (two peptides per 14-3-3θ dimer).

B5: MBP-14-3-3θ (natural protein, human, UniProt P27348 1-245, looked up)
chain: MEKTELIQKAKLAEQAERYDDMATCMKAVTEQGAELSNEERNLLSVAYKNVVGGRRSAWRVISSIEQKTDTSDKKLQLIKDYREKVESELRSICTTVLELLDKYLIANATNPESKVFYLKMKGDYFRYLAEVACGDDRKQTIDNSQGAYQEAFDISKKEMQPTHPIRLGLALNFSVFYYEILNNPELACTLAKTAFDEAIAELDTLNEDSYKDSTLIMQLLRDNLTLWTSDSAGEECDAAEGAEN
notes: also called MBP-tagged 14-3-3θ; source: E. coli BL21(DE3), purified (amylose resin, SEC)
In the case of B5, the binding result in test [3] is on record as “binds”.

B6: pIRSp53FS (natural protein, human (from the printed UniProt entry), UniProt Q9UQB8-4 1-521, looked up)
chain: MSLSRSEEMHRLTENVYKTIMEQFNPSLRNFIAMGKNYEKALAGVTYAAKGYFDALVKMGELASESQGSKELGDVLFQMAEVHRQIQNQLEEMLKSFHNELLTQLEQKVELDSRYLSAALKKYQTEQRSKGDALDKCQAELKKLRKKSQGSKNPQKYSDKELQYIDAISNKQGELENYVSDGYKTALTEERRRFCFLVEKQCAVAKNSAAYHSKGKELLAQKLPLWQQACADPSKIPERAVQLMQQVASNGATLPSALSASKSNLVISDPIPGAKPLPVPPELAPFVGRMSAQESTPIMNGVTGPDGEDYSPWADRKAAQPKSLSPPQSQSKLSDSYSNTLPVRKSVTPKNSYATTENKTLPRSSSMAAGLERNGRMRVKAIFSHAAGDNSTLLSFKEGDLITLLVPEARDGWHYGESEKTKMRGWFPFSYTRVLDSDGSDRLHMSLQQGKSSSTGNLLDKDDLAIPPPDYGAASRAFPAQTASGFKQRPYSVAVPAFSQGLDDYGARSMSSGSGTLVCTV
modifications: natively phosphorylated in HEK293T cells; fluorescein maleimide / rhodamine maleimide on C230 and C519
notes: IRSp53 (BAIAP2), isoform-4, UniProt Q9UQB8-4, full length, S519C; Expressed and purified as m4; also called IRSp53 FRET sensor; phosphorylated IRSp53 (mutant S519C)
B6 showed a Kd in test [4] of 42 nM.

B7: Site 5 peptide (pS454) (peptide)
chain: Ac-QQGKSSSTGNLLD-NH2
modifications: also: phosphoserine at S454, which serine of the chain is not given here
Consider B7, for which, in test [1], the Kd came out at 12000 nM and the “stoichiometry N” value is ~1 peptide per 14-3-3θ subunit (two peptides per 14-3-3θ dimer).

B8: Sites 2,3 peptide (pT340/pT360) (peptide)
peptide: Ac-DSYSN[pT]LPVRKSVTPKNSYATTENK[pT]LPRSSS-NH2
SMILES: CC(=O)N[C@@H](CC(=O)O)C(=O)N[C@@H](CO)C(=O)N[C@@H](Cc1ccc(O)cc1)C(=O)N[C@@H](CO)C(=O)N[C@@H](CC(N)=O)C(=O)N[C@H](C(=O)N[C@@H](CC(C)C)C(=O)N1CCC[C@H]1C(=O)N[C@H](C(=O)N[C@@H](CCCNC(=N)N)C(=O)N[C@@H](CCCCN)C(=O)N[C@@H](CO)C(=O)N[C@H](C(=O)N[C@H](C(=O)N1CCC[C@H]1C(=O)N[C@@H](CCCCN)C(=O)N[C@@H](CC(N)=O)C(=O)N[C@@H](CO)C(=O)N[C@@H](Cc1ccc(O)cc1)C(=O)N[C@@H](C)C(=O)N[C@H](C(=O)N[C@H](C(=O)N[C@@H](CCC(=O)O)C(=O)N[C@@H](CC(N)=O)C(=O)N[C@@H](CCCCN)C(=O)N[C@H](C(=O)N[C@@H](CC(C)C)C(=O)N1CCC[C@H]1C(=O)N[C@@H](CCCNC(=N)N)C(=O)N[C@@H](CO)C(=O)N[C@@H](CO)C(=O)N[C@@H](CO)C(N)=O)[C@@H](C)OP(=O)(O)O)[C@@H](C)O)[C@@H](C)O)[C@@H](C)O)C(C)C)C(C)C)[C@@H](C)OP(=O)(O)O
notes: IRSp53 stretch of 29-40 residues that holds T340 and T360; also called doubly-phosphorylated IRSp53 peptide Sites 2,3; source: synthetic peptide (Dr. Paul Leavis, Tufts University)
Take B8: in test [1], the Kd is 45 nM and the “stoichiometry N” value was ~0.5 peptide per 14-3-3θ subunit (one peptide per 14-3-3θ dimer).

B9: Site 2 peptide (pT340) (peptide)
chain: Ac-LSDSYSN[pT]LPVRKS-NH2
SMILES: CC(=O)N[C@@H](CC(C)C)C(=O)N[C@@H](CO)C(=O)N[C@@H](CC(=O)O)C(=O)N[C@@H](CO)C(=O)N[C@@H](Cc1ccc(O)cc1)C(=O)N[C@@H](CO)C(=O)N[C@@H](CC(N)=O)C(=O)N[C@H](C(=O)N[C@@H](CC(C)C)C(=O)N1CCC[C@H]1C(=O)N[C@H](C(=O)N[C@@H](CCCNC(=N)N)C(=O)N[C@@H](CCCCN)C(=O)N[C@@H](CO)C(N)=O)C(C)C)[C@@H](C)OP(=O)(O)O
For B9, the “stoichiometry N” value is 1 peptide per 14-3-3θ subunit in test [2] and ~1 peptide per 14-3-3θ subunit (two peptides per 14-3-3θ dimer) in test [1].
